The target of data set [1] is T1, VEGF-165 (VEGF-A) (Homo sapiens).
T1 chain: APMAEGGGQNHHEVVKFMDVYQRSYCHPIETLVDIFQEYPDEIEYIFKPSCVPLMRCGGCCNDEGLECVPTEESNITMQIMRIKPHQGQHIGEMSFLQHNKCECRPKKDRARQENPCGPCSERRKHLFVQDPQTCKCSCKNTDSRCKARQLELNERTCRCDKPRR
As to the kind of experiment: competition; VEGF receptor competition. Particulars: tags: recombinant; chain copies: 2.

The target in data set [2] is T2, Angiopoietin-2 (Ang2) (Homo sapiens, UniProt O15123 O15123:19-496). Description: competition; Ang2/Tie2 competition (column printed Tier2). The note with it: tags: His tag; R&D Systems 623-AN.
T2 sequence (O15123 19-496, one chain of several): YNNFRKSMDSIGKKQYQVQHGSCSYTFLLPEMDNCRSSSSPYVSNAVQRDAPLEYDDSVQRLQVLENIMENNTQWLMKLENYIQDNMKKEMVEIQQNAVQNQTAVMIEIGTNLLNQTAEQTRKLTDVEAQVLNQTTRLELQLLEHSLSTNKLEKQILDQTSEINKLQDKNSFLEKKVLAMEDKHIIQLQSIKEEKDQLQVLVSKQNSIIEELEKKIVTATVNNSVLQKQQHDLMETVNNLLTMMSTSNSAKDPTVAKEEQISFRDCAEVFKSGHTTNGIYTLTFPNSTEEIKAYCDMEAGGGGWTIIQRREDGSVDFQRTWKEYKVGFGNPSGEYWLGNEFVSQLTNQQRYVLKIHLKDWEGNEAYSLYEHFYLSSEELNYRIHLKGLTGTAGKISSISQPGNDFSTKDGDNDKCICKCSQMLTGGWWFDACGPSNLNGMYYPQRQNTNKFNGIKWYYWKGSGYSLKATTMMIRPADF
The target of data set [3] is T2, Angiopoietin-2 (Ang2). Description: competition; Ang2/Tie2 inhibition. The note with it: tags: His tag; R&D Systems 623-AN.
Data set [4] addresses T1, VEGF-165 (VEGF-A). As to the kind of experiment: competition; VEGF/VEGFR2 inhibition. Particulars: tags: R&D Systems 293-VE-050; chain copies: 2.

B1: AMSB107.P40K (ssRNA)
RNA: UGCAUGCAUUUUACCAGUGAGUCGGAUCUCCGCAUAGAUAAGCCAACAAACGUACAUUCUCUGUUAGUAUUUUCUGCG
modifications: 2'-F all nucleotides; 5' 40 kDa PEG (SEQ 203 as printed in the description)
In general, IC50 refers to the concentration needed to halve the response being measured. As for B1, the IC50 in data set [1] was 0.036 nM; in data set [2], 0.045 nM.

B2: AMSB107 (ssRNA)
RNA: B1 RNA
modifications: 2'-F all
As to B2, the results for the IC50 in data set [3] and in data set [4] were approximately 0.1 nM and 0.073 nM, respectively.

The record behind these values is patent US20230095004 (Aptitude Medical Systems, Inc., published 2023).
